Measured values published in patent US20210388087A1 (Chugai, published 2021).

B1: H183/L072 VL F96T (antibody, name in Kabat numbering, V domains shown)
VH: QVQLVESGGGLVQPGRSLRLSCAASGFTFSNAWMHWVRQAPGKGLEWVAQIKDKGNAYAAYYAPSVKGRFTISRDDSKNSIYLQMNSLKTEDTAVYYCHYVHYASASTVLPAFGVDAWGQGTTVTVSS
VL: DIVMTQSPLSLPVTPGEPASISCQASQELVHMNRNTYLHWYQQKPGQAPRLLIYKVSNRFPGVPDRFSGSGSGTDFTLKISRVEAEDVGVYYCAQGTSVPTTFGQGTKLEIK
notes: Dual-Ig
B2: H183/L072 VL F96W (antibody, name in Kabat numbering, V domains shown)
VH: QVQLVESGGGLVQPGRSLRLSCAASGFTFSNAWMHWVRQAPGKGLEWVAQIKDKGNAYAAYYAPSVKGRFTISRDDSKNSIYLQMNSLKTEDTAVYYCHYVHYASASTVLPAFGVDAWGQGTTVTVSS
VL: DIVMTQSPLSLPVTPGEPASISCQASQELVHMNRNTYLHWYQQKPGQAPRLLIYKVSNRFPGVPDRFSGSGSGTDFTLKISRVEAEDVGVYYCAQGTSVPWTFGQGTKLEIK
notes: Dual-Ig
B3: H183/L072 VL G91V (antibody, name in Kabat numbering, V domains shown)
VH: QVQLVESGGGLVQPGRSLRLSCAASGFTFSNAWMHWVRQAPGKGLEWVAQIKDKGNAYAAYYAPSVKGRFTISRDDSKNSIYLQMNSLKTEDTAVYYCHYVHYASASTVLPAFGVDAWGQGTTVTVSS
VL: DIVMTQSPLSLPVTPGEPASISCQASQELVHMNRNTYLHWYQQKPGQAPRLLIYKVSNRFPGVPDRFSGSGSGTDFTLKISRVEAEDVGVYYCAQVTSVPFTFGQGTKLEIK
notes: Dual-Ig
B4: H183/L072 VL G91K (antibody, name in Kabat numbering, V domains shown)
VH: QVQLVESGGGLVQPGRSLRLSCAASGFTFSNAWMHWVRQAPGKGLEWVAQIKDKGNAYAAYYAPSVKGRFTISRDDSKNSIYLQMNSLKTEDTAVYYCHYVHYASASTVLPAFGVDAWGQGTTVTVSS
VL: DIVMTQSPLSLPVTPGEPASISCQASQELVHMNRNTYLHWYQQKPGQAPRLLIYKVSNRFPGVPDRFSGSGSGTDFTLKISRVEAEDVGVYYCAQKTSVPFTFGQGTKLEIK
notes: Dual-Ig
B5: H183/L072 VL G91H (antibody, name in Kabat numbering, V domains shown)
VH: QVQLVESGGGLVQPGRSLRLSCAASGFTFSNAWMHWVRQAPGKGLEWVAQIKDKGNAYAAYYAPSVKGRFTISRDDSKNSIYLQMNSLKTEDTAVYYCHYVHYASASTVLPAFGVDAWGQGTTVTVSS
VL: DIVMTQSPLSLPVTPGEPASISCQASQELVHMNRNTYLHWYQQKPGQAPRLLIYKVSNRFPGVPDRFSGSGSGTDFTLKISRVEAEDVGVYYCAQHTSVPFTFGQGTKLEIK
notes: Dual-Ig
B6: H183/L072 VL G91L (antibody, name in Kabat numbering, V domains shown)
VH: QVQLVESGGGLVQPGRSLRLSCAASGFTFSNAWMHWVRQAPGKGLEWVAQIKDKGNAYAAYYAPSVKGRFTISRDDSKNSIYLQMNSLKTEDTAVYYCHYVHYASASTVLPAFGVDAWGQGTTVTVSS
VL: DIVMTQSPLSLPVTPGEPASISCQASQELVHMNRNTYLHWYQQKPGQAPRLLIYKVSNRFPGVPDRFSGSGSGTDFTLKISRVEAEDVGVYYCAQLTSVPFTFGQGTKLEIK
notes: Dual-Ig
B7: H183/L072 VL G91F (antibody, name in Kabat numbering, V domains shown)
VH: QVQLVESGGGLVQPGRSLRLSCAASGFTFSNAWMHWVRQAPGKGLEWVAQIKDKGNAYAAYYAPSVKGRFTISRDDSKNSIYLQMNSLKTEDTAVYYCHYVHYASASTVLPAFGVDAWGQGTTVTVSS
VL: DIVMTQSPLSLPVTPGEPASISCQASQELVHMNRNTYLHWYQQKPGQAPRLLIYKVSNRFPGVPDRFSGSGSGTDFTLKISRVEAEDVGVYYCAQFTSVPFTFGQGTKLEIK
notes: Dual-Ig
B8: H183/L072 VL G91N (antibody, name in Kabat numbering, V domains shown)
VH: QVQLVESGGGLVQPGRSLRLSCAASGFTFSNAWMHWVRQAPGKGLEWVAQIKDKGNAYAAYYAPSVKGRFTISRDDSKNSIYLQMNSLKTEDTAVYYCHYVHYASASTVLPAFGVDAWGQGTTVTVSS
VL: DIVMTQSPLSLPVTPGEPASISCQASQELVHMNRNTYLHWYQQKPGQAPRLLIYKVSNRFPGVPDRFSGSGSGTDFTLKISRVEAEDVGVYYCAQNTSVPFTFGQGTKLEIK
notes: Dual-Ig
B9: H183/L072 VL G91M (antibody, name in Kabat numbering, V domains shown)
VH: QVQLVESGGGLVQPGRSLRLSCAASGFTFSNAWMHWVRQAPGKGLEWVAQIKDKGNAYAAYYAPSVKGRFTISRDDSKNSIYLQMNSLKTEDTAVYYCHYVHYASASTVLPAFGVDAWGQGTTVTVSS
VL: DIVMTQSPLSLPVTPGEPASISCQASQELVHMNRNTYLHWYQQKPGQAPRLLIYKVSNRFPGVPDRFSGSGSGTDFTLKISRVEAEDVGVYYCAQMTSVPFTFGQGTKLEIK
notes: Dual-Ig
B10: H183/L072 VL G91T (antibody, name in Kabat numbering, V domains shown)
VH: QVQLVESGGGLVQPGRSLRLSCAASGFTFSNAWMHWVRQAPGKGLEWVAQIKDKGNAYAAYYAPSVKGRFTISRDDSKNSIYLQMNSLKTEDTAVYYCHYVHYASASTVLPAFGVDAWGQGTTVTVSS
VL: DIVMTQSPLSLPVTPGEPASISCQASQELVHMNRNTYLHWYQQKPGQAPRLLIYKVSNRFPGVPDRFSGSGSGTDFTLKISRVEAEDVGVYYCAQTTSVPFTFGQGTKLEIK
notes: Dual-Ig
B11: H183/L072 VL G91Q (antibody, name in Kabat numbering, V domains shown)
VH: QVQLVESGGGLVQPGRSLRLSCAASGFTFSNAWMHWVRQAPGKGLEWVAQIKDKGNAYAAYYAPSVKGRFTISRDDSKNSIYLQMNSLKTEDTAVYYCHYVHYASASTVLPAFGVDAWGQGTTVTVSS
VL: DIVMTQSPLSLPVTPGEPASISCQASQELVHMNRNTYLHWYQQKPGQAPRLLIYKVSNRFPGVPDRFSGSGSGTDFTLKISRVEAEDVGVYYCAQQTSVPFTFGQGTKLEIK
notes: Dual-Ig
B12: H183/L072 VL G91A (antibody, name in Kabat numbering, V domains shown)
VH: QVQLVESGGGLVQPGRSLRLSCAASGFTFSNAWMHWVRQAPGKGLEWVAQIKDKGNAYAAYYAPSVKGRFTISRDDSKNSIYLQMNSLKTEDTAVYYCHYVHYASASTVLPAFGVDAWGQGTTVTVSS
VL: DIVMTQSPLSLPVTPGEPASISCQASQELVHMNRNTYLHWYQQKPGQAPRLLIYKVSNRFPGVPDRFSGSGSGTDFTLKISRVEAEDVGVYYCAQATSVPFTFGQGTKLEIK
notes: Dual-Ig
B13: H183/L072 VL G91R (antibody, name in Kabat numbering, V domains shown)
VH: QVQLVESGGGLVQPGRSLRLSCAASGFTFSNAWMHWVRQAPGKGLEWVAQIKDKGNAYAAYYAPSVKGRFTISRDDSKNSIYLQMNSLKTEDTAVYYCHYVHYASASTVLPAFGVDAWGQGTTVTVSS
VL: DIVMTQSPLSLPVTPGEPASISCQASQELVHMNRNTYLHWYQQKPGQAPRLLIYKVSNRFPGVPDRFSGSGSGTDFTLKISRVEAEDVGVYYCAQRTSVPFTFGQGTKLEIK
notes: Dual-Ig
B14: H183/L072 VL G91I (antibody, name in Kabat numbering, V domains shown)
VH: QVQLVESGGGLVQPGRSLRLSCAASGFTFSNAWMHWVRQAPGKGLEWVAQIKDKGNAYAAYYAPSVKGRFTISRDDSKNSIYLQMNSLKTEDTAVYYCHYVHYASASTVLPAFGVDAWGQGTTVTVSS
VL: DIVMTQSPLSLPVTPGEPASISCQASQELVHMNRNTYLHWYQQKPGQAPRLLIYKVSNRFPGVPDRFSGSGSGTDFTLKISRVEAEDVGVYYCAQITSVPFTFGQGTKLEIK
notes: Dual-Ig
B15: H183/L072 VL G91P (antibody, name in Kabat numbering, V domains shown)
VH: QVQLVESGGGLVQPGRSLRLSCAASGFTFSNAWMHWVRQAPGKGLEWVAQIKDKGNAYAAYYAPSVKGRFTISRDDSKNSIYLQMNSLKTEDTAVYYCHYVHYASASTVLPAFGVDAWGQGTTVTVSS
VL: DIVMTQSPLSLPVTPGEPASISCQASQELVHMNRNTYLHWYQQKPGQAPRLLIYKVSNRFPGVPDRFSGSGSGTDFTLKISRVEAEDVGVYYCAQPTSVPFTFGQGTKLEIK
notes: Dual-Ig
B16: H183/L072 VL H27dA (antibody, name in Kabat numbering, V domains shown)
VH: QVQLVESGGGLVQPGRSLRLSCAASGFTFSNAWMHWVRQAPGKGLEWVAQIKDKGNAYAAYYAPSVKGRFTISRDDSKNSIYLQMNSLKTEDTAVYYCHYVHYASASTVLPAFGVDAWGQGTTVTVSS
VL: DIVMTQSPLSLPVTPGEPASISCQASQELVAMNRNTYLHWYQQKPGQAPRLLIYKVSNRFPGVPDRFSGSGSGTDFTLKISRVEAEDVGVYYCAQGTSVPFTFGQGTKLEIK
notes: Dual-Ig
B17: H183/L072 VL F96V (antibody, name in Kabat numbering, V domains shown)
VH: QVQLVESGGGLVQPGRSLRLSCAASGFTFSNAWMHWVRQAPGKGLEWVAQIKDKGNAYAAYYAPSVKGRFTISRDDSKNSIYLQMNSLKTEDTAVYYCHYVHYASASTVLPAFGVDAWGQGTTVTVSS
VL: DIVMTQSPLSLPVTPGEPASISCQASQELVHMNRNTYLHWYQQKPGQAPRLLIYKVSNRFPGVPDRFSGSGSGTDFTLKISRVEAEDVGVYYCAQGTSVPVTFGQGTKLEIK
notes: Dual-Ig
B18: H183/L072 VL G91S (antibody, name in Kabat numbering, V domains shown)
VH: QVQLVESGGGLVQPGRSLRLSCAASGFTFSNAWMHWVRQAPGKGLEWVAQIKDKGNAYAAYYAPSVKGRFTISRDDSKNSIYLQMNSLKTEDTAVYYCHYVHYASASTVLPAFGVDAWGQGTTVTVSS
VL: DIVMTQSPLSLPVTPGEPASISCQASQELVHMNRNTYLHWYQQKPGQAPRLLIYKVSNRFPGVPDRFSGSGSGTDFTLKISRVEAEDVGVYYCAQSTSVPFTFGQGTKLEIK
notes: Dual-Ig
B19: H183/L072 VL G91D (antibody, name in Kabat numbering, V domains shown)
VH: QVQLVESGGGLVQPGRSLRLSCAASGFTFSNAWMHWVRQAPGKGLEWVAQIKDKGNAYAAYYAPSVKGRFTISRDDSKNSIYLQMNSLKTEDTAVYYCHYVHYASASTVLPAFGVDAWGQGTTVTVSS
VL: DIVMTQSPLSLPVTPGEPASISCQASQELVHMNRNTYLHWYQQKPGQAPRLLIYKVSNRFPGVPDRFSGSGSGTDFTLKISRVEAEDVGVYYCAQDTSVPFTFGQGTKLEIK
notes: Dual-Ig
B20: H183/L072 VL G91W (antibody, name in Kabat numbering, V domains shown)
VH: QVQLVESGGGLVQPGRSLRLSCAASGFTFSNAWMHWVRQAPGKGLEWVAQIKDKGNAYAAYYAPSVKGRFTISRDDSKNSIYLQMNSLKTEDTAVYYCHYVHYASASTVLPAFGVDAWGQGTTVTVSS
VL: DIVMTQSPLSLPVTPGEPASISCQASQELVHMNRNTYLHWYQQKPGQAPRLLIYKVSNRFPGVPDRFSGSGSGTDFTLKISRVEAEDVGVYYCAQWTSVPFTFGQGTKLEIK
notes: Dual-Ig
B21: H183/L072 VL G91E (antibody, name in Kabat numbering, V domains shown)
VH: QVQLVESGGGLVQPGRSLRLSCAASGFTFSNAWMHWVRQAPGKGLEWVAQIKDKGNAYAAYYAPSVKGRFTISRDDSKNSIYLQMNSLKTEDTAVYYCHYVHYASASTVLPAFGVDAWGQGTTVTVSS
VL: DIVMTQSPLSLPVTPGEPASISCQASQELVHMNRNTYLHWYQQKPGQAPRLLIYKVSNRFPGVPDRFSGSGSGTDFTLKISRVEAEDVGVYYCAQETSVPFTFGQGTKLEIK
notes: Dual-Ig

These binders were tested against T1, Human CD137 ECD (human) (assay: Biacore SPR, vs parent H183/L072).
T1 construct: entry includes C-terminal His-tag and biotin acceptor peptide; also called human CD137 extracellular domain; 4-1BB
T1 sequence (chain, as listed by the source limits assumed): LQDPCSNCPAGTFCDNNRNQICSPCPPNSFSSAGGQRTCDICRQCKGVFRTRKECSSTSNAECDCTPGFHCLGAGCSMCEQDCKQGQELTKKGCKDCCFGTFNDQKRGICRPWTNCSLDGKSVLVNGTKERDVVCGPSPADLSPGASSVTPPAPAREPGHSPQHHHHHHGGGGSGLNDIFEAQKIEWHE

fold change of affinity [fold]	Binder
0	B1
0	B2
0	B3
0	B4
0	B5
0	B6
0	B7
0	B8
0	B9
0	B10
0	B11
0.4	B12
0	B13
0	B14
0	B15
0.7	B16
0	B17
0	B18
0	B19
0	B20
0	B21
